Assay results from US6977175 (MIT, dated 2005).

T1: LIN-15B protein (C. elegans, UniProt Q27395 1-1440, limits assumed)
T1 construct: Tested in a yeast two-hybrid assay; The fusion partners and construct limits are not described
T1 sequence (looked up): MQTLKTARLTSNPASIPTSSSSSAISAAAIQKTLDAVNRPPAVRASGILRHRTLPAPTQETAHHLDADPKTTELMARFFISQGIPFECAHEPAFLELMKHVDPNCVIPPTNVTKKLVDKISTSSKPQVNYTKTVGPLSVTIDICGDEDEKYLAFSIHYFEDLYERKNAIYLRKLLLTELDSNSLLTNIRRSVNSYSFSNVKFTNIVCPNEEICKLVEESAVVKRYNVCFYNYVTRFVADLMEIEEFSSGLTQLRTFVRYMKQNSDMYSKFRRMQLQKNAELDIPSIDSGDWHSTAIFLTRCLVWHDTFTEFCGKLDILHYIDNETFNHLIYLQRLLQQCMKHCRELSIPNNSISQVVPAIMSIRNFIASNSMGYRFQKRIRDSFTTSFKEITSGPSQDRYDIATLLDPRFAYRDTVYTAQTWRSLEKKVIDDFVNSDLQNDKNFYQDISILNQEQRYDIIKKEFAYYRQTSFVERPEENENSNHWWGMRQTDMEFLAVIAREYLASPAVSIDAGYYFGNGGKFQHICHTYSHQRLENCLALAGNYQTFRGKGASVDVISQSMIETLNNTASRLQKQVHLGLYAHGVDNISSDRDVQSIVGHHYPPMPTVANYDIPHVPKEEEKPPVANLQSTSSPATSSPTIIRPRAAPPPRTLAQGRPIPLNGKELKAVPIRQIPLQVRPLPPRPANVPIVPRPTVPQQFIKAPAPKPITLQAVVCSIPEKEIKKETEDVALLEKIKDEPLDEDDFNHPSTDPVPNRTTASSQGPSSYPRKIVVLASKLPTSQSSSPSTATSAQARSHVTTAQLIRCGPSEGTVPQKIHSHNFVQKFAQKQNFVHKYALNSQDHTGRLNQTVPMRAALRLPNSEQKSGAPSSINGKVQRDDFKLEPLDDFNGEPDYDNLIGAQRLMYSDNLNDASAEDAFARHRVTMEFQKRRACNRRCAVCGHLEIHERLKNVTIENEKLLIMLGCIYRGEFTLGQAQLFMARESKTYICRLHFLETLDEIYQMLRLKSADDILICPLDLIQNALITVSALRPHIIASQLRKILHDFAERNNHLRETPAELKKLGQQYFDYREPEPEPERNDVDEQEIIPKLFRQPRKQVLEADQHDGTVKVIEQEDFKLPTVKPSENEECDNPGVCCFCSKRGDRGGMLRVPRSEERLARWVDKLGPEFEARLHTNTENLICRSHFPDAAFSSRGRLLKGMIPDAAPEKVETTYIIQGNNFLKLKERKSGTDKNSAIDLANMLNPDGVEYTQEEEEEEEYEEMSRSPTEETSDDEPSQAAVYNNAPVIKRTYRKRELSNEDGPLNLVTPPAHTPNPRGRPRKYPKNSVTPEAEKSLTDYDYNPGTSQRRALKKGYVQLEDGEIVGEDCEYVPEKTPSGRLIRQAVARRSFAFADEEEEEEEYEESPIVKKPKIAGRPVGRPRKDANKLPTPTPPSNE

B1: LIN-15A protein (other, C. elegans, UniProt Q27365 1-719, looked up)
chain: MLAPAAPAKDVVSADEKEEIIAKRKFRMKNVDAMRMSSLANDRMAFNKKCNALAMKFVKSAGIGTDALQLTCFQELVRHFNPIAAVVVGVKREPNSNVQAEKKTIPKVKTIQTPTQSMESVRLLQEKKASATEEQSAESASIMKHFANTIPNSTPTQSVKDVLTAAASKGQFKSSAEIFSHFPSEPSPSKPRATREGSQPSDYTYCTYLTPCILCEKALLMRESIAMTDNEAVKVLMAAVMSGHFRMATAEKAIRHERLRMCYDHVDFVYEMMCDAFEAKTESEINEMPPDRLMRGHDIYRALKRVGDLHKGKVTSNTPLYSFKNSIKSYYRNHVPRMVNGSLSKPSPKPFSELVALLQSVPPSTNLNELLNHNLSLSDADKQELIQLINGKDNRFTSRRRKIEDILDNKFAAAAAKAYRDHSEDAPSEPYIPNQSEMQNTVERRKRKLHSPEQDDAGSSSISWNAKKTKTPIDYVHLATRVLEGHSIADEALLHKSKVSYARNAFGEKPSSPTPPSAPLKFCVVNGKKYLRFENGTGPPKVVVQGNVVLRTNTLKDALTTAPRAQNQPSTSTDSSSSSEMEGIRQSFGAPQKEEEEEELVPTLLQNKPTHVESSSPVEKKPPTKTNVEKPAVRLGRMLTTAFGSMSYRTRKSVENKTDLLNQPTSASPRRMIKVVRNRNPHLAKQVAAAPSEPKHIPPTHMEKKPEELLMDPKPEPIF
notes: Tested in a yeast two-hybrid assay; The fusion partners and construct limits are not described

Key:
LIN-15B protein = molecular target: T1, LIN-15B protein; test: yeast two-hybrid
LIN-15A protein = molecular target: B1; test: yeast two-hybrid

binding result (LIN-15B protein) | binding result (LIN-15A protein) | Binder
no binding | no binding | LIN-9 protein (other, C. elegans, UniProt P30630 1-644, looked up, Tested in a yeast two-hybrid assay; The fusion partners and construct limits are not described) MSSAVRSPRKKAASDTSDPDRTSSPYSLRETSKVPSRYRNEELYLSPSRSIKRTGSPKKSPAKRLNGGRDSPSVNSLTRNSSLTMLAKAALDYESSSCALEYIFQPKEERRPPRRALALSPPPAPSNDLLAKDLEMIEMHQNLVAGLDDLDNPANMTNEAVEHRDTQSFFNMFSTDQERSAMMKQFKTYKNQTSEDVSTFMRANIKKLYNLLRYKKARQWVMCEFFYSAIDEQIFKEENEFATIIRESFPNLKNWNLTRIEWRSIRKLLGKPRRCSKVFFEEERMYLEEKRMKIRSVYEGSYLNDPSIDLKDLPAKLPRPMVVGNRVFARIRNPYDGIYSGIIDAVIPKGFRIIFDKPDIPPTLVSDTEILLDGKLDLLSIAYFIEQANSKLPSGVRPFVAAVRDSSHPHLVRDVLVSRKIERSGGPLMGPNDERLNGKNAEMVGNFPLKFLVNLVKLTKLIDIKKGLIRQLNELNADAEIQNMTSDKYSKAFQEKYAKTIIDLEHVNQNIDINMNGIQDHHMYFSSNDISTSNMKPEAVRQMCSQQAGRFVEHCNQGLNVENVHALTLIQSLTAVLLQVRTMGTQKISAVDLQSLGDAISEIRTAIHPRNVAFFQDYVEVHMKQFHTIMLESGALAGTVSNRK
no binding | – | B1
